# Laboratory results published in patent US20240200081A1, “NUCLEIC ACID MOLECULE CONJUGATE HAVING PROLONGED IN VIVO HALF-LIFE” (APTACURE THERAPEUTICS LIMITED, published 2024).
# What was measured:
# sclerostin [1] = target: sclerostin (UniProt Q9BQB4 Q9BQB4:24-213); experiment: cell_activity; inhibition potency, TOP-Wnt luciferase reporter; settings: tags: expressed from transfected sclerostin plasmid in MC3T3-E1 cells
# Experimental: To study the inhibition potency of aptamers against sclerostin's antagonistic effect on Wnt signaling, a TOP-Wnt induced luciferase reporter assay was used in osteoblast MC3T3-E1 cells (van Bezooijen, Svensson et al. 2007, Shum, Chan et al. 2011).
# MC3T3-E1 cells were seeded in 24-well plates and cells were transfected with corresponding reporter plasmid (100 ng), Wnt3a plasmid (800 ng) and sclerostin plasmid (800 ng) as necessary using FuGENE HD transfection reagent (Promega) in the following day. 10 hours after transfection, culture medium was changed to fresh medium and cells were treated with aptamers/antibody. 24 hours after treatment, each well of cells was lysed with 100 μl passive lysis buffer and 20 μl was taken for analysis. The Luciferase Assay Reagent II and Stop & Glo Reagent were prepared and added automatically by SpectraMax i3x Multi-Mode Detection Platform (Molecular Device) according to the manufacturer's protocol (Promega) and data was analyzed accordingly (Grentzmann, Ingram et al. 1998, McNabb, Reed et al. 2005).
# sclerostin [2] = target: sclerostin (Homo sapiens, UniProt Q9BQB4 SEQ:1-190); experiment: ELONA; PBS, 1 mM MgCl2, RT; p158 prints 3' end as CT GCCC, APC001 as U G C C; settings: tags: His6 (SELEX protein); recombinant human sclerostin
# Experimental: An Enzyme-linked OligoNucleotide Assay (ELONA) was performed to determine the binding affinity of the aptamer candidates to sclerostin (Drolet, Moon-McDermott et al. 1996). Similarly, an Enzyme-linked ImmunoSorbent Assay (ELISA) was performed to determine the binding affinity of anti-sclerostin antibody to human sclerostin (Engvall and Perlmann 1971). 160 ng purified recombinant human sclerostin was coated to 96-well microtiter plate in 100 μl PBS by incubating at 4° C. overnight. The plate was then blocked with blocking buffer (PBS, 0.1% Tween 20 and 1% BSA) for 1 h at room temperature and washed with SELEX B&W buffer (PBS, 1mM MgCl2, 0.1% Tween 20 and 0.1% BSA) for 4 times. The aptamer candidates were denatured at 95° C. for 10 min and rapidly cooled on ice for 10 min before use. Appropriate concentrations of biotinylated aptamers/antibody were added into each well, then added SELEX B&W buffer to 100 μl and incubated for 45 min at room temperature with continuous gentle shaking. After binding, the plate was washed with SELEX B&W buffer for 4 times to remove non-specific and very weak binding, followed by washing with PBST+0.1% BSA for 4 times. […] Absorbance at 450 nm was measured with microplate reader (Stoltenburg, Krafcikova et al. 2016). Data was analyzed with Origin software (OriginLab, Northampton, MA). […]
# Chain of sclerostin (UniProt Q9BQB4 Q9BQB4:24-213) (Q9BQB4 24-213, one chain of several): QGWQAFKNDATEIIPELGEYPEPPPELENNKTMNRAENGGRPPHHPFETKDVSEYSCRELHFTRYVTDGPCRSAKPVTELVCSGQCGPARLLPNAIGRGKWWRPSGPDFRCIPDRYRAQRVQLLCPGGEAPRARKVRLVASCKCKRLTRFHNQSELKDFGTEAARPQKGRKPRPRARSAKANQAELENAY
# Chain of sclerostin (Homo sapiens, UniProt Q9BQB4 SEQ:1-190) (Q9BQB4 24-213): as the sequence (Q9BQB4 24-213, one chain of several) above
binder,measurement,setting,value
"CGGGGTGTGGGTTCGTCGTTAGCTTGATTTGGCAGCTGCC (ssDNA, 2'-OMe on first 4 (CGGG) and last 4 nucleotides; 3' idT) [modified aptscl 56]",EC50,sclerostin [1],14 mg/L
same,Kd,sclerostin [2],6.55 nM
